Assay results published in patent US20250223361A1 (MABTREE BIOLOGICS, published 2025).
Changes are numbered by the printed parent chain.

Key:
[1] = biological target: T1, human PD-L1.his Protein (human, UniProt Q9NZQ7 19-238, limits assumed); test: ELISA, coated human PD-L1.his, absorbance at 450 nm; lower table
T1 construct: Produced in-house (Genscript); also called HuPD-L1-his; not shown: his tag

[2] = biological target: T1, human PD-L1.his Protein; test: ELISA, coated human PD-L1.his, absorbance at 450 nm; upper table
[3] = biological target: T1, human PD-L1.his Protein; test: SPR Biacore T200, antibody Fc-captured, antigen as analyte
Protocol: The affinity of purified antibody binding to antigen was individually determined using a Surface Plasmon Resonance (SPR) biosensor, BiacoreT200 (GE Healthcare). Antibodies were immobilized on the sensor chip through Fc capture method. Antigen was used as the analyte. The data of dissociation (kd) and association (ka) rate constants were obtained using Biacore T200 evaluation software. The equilibrium dissociation constants (KD) were calculated from the ratio of kd over ka.

[4] = biological target: T1, human PD-L1.his Protein; test: GATOR instrument kinetics, HuPD-L1-his
[5] = biological target: T1, human PD-L1.his Protein; test: ELISA, coated human PD-L1.his, absorbance at 450 nm
Protocol: To evaluate the fully human IgGs binding activity to human PD-L1 protein, ELISA EC50 determination was performed. Briefly, human PD-L1.his protein was coated with 0.5 μg/ml in CBS, 100 μl/well at 4° C., incubated for overnight. Washed three times and blocking with 3% BSA-PBS at 37° C. for 1 hour. Then diluted fully human IgGs in 1% BSA-PBS were added to the blocked wells. […] Incubation at room temperature for 2 hours. […] The plates were washed for additional 6 times and the substrate solution were added to the wells for developing reaction. The absorption was measured at 450nm using a spectrometer.

[6] = biological target: T2, human PD-L1 on CHO cells (human, UniProt Q9NZQ7 19-290); test: cell-based or functional assay
[7] = biological target: T2, human PD-L1 on CHO cells; test: cell-based or functional assay; remark: listed apart in the source
[8] = biological target: T1, human PD-L1.his Protein; test: GATOR instrument kinetics, HuPD-L1-his; reference parental antibody AHP01679

T2 sequence (Q9NZQ7 19-290): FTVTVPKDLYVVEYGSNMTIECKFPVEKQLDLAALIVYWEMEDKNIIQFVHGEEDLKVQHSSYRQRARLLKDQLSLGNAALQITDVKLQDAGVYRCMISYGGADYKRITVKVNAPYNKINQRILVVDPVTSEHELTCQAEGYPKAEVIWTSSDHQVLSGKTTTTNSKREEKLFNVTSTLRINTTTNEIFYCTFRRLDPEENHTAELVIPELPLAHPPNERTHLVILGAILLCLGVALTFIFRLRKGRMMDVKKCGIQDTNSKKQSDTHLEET
T1 sequence (Q9NZQ7 19-238 limits assumed): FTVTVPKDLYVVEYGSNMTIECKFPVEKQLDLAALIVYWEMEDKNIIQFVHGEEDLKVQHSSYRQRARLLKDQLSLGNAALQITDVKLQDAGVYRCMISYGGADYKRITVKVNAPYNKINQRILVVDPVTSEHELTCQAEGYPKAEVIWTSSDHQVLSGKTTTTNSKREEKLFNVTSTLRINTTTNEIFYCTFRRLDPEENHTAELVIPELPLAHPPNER

What does the source list for negative control human IgG (antibody)?
absorbance at 0.00564503 ng/ml [1]: 0.058; absorbance at 0.01693509 ng/ml [1]: 0.067; absorbance at 0.05080526 ng/ml [1]: 0.061; absorbance at 0.15241579 ng/ml [1]: 0.064; absorbance at 0.45724737 ng/ml [1]: 0.057; absorbance at 1.37174211 ng/ml [1]: 0.065; absorbance at 12.345679 ng/ml [1]: 0.064; absorbance at 37.037037 ng/ml [1]: 0.059; absorbance at 111.111111 ng/ml [1]: 0.067; absorbance at 333.333333 ng/ml [1]: 0.059; absorbance at 1000 ng/ml [1]: 0.081; absorbance at 1.3717 ng/ml [2]: 0.078; absorbance at 4.1152 ng/ml [2]: 0.052; absorbance at 37.0370 ng/ml [2]: 0.052; absorbance at 111.1111 ng/ml [2]: 0.054; absorbance at 333.3333 ng/ml [2]: 0.058; absorbance at 1000 ng/ml [2]: 0.069; absorbance at 3000 ng/ml [2]: 0.121

B1: AHP01679 (antibody, human IgG1, lambda, V domains shown)
VH: EVQLVQSGAEVKKPGSSVKVSCKASGGTFSSYAISWVRQAPGQGLEWMGRIIPILGIANYAQKFQGRVTITADKSTSTAYMELSSLRSEDTAVYYCTTFIQQWLYAFDIWGQGTMVTVSS
VL: QAVLTQPSSVSGAPGQRVTISCTGSSSNIGAGYDVHWYQQLPGTAPKLLIYGNNNRPSGVPDRFSGSKSGTSASLAITGLQAEDEADYYCQSYDSSLSGSVFGGGTKLTVLG
notes: Fully human full-length IgG (IgG1 constant region, lambda light chain); also called Parental Ab; parental antibody
How did the Kd [3] turn out when B1 was run?
The Kd was 4.09 nM.

And the koff [3]?
Its koff is 0.00259 s⁻¹.

And the kon [3]?
The kon was 635000 M⁻¹ s⁻¹.

And the Kd [4]?
The Kd was 0.351 nM.

What about the koff [4] of the same molecule?
Its koff is 0.00132 s⁻¹.

And the kon [4]?
Its kon is 3.77e+06 M⁻¹ s⁻¹.

And the EC50 [5]?
Its EC50 is 0.00334 µg/mL.

And the “EC50 (assay not named; EC50 is defined in paragraph 62 as the concentration of antibody required to block binding of PD-1/PD-L1 by 50%)” value [6]?
The value was 0.163 µg/mL.

And the “EC50 (read off the curve), PD-1/PD-L1 blockade luciferase reporter assay [panel E]” value [7]?
The value was about 0.2 µg/mL.

What about the “EC50, PD-1/PD-L1 blockade luciferase reporter assay [panel E]” value [7] of the same molecule?
The value was 0.153 µg/mL.

What about the “KD (Parental Ab)/KD (Candidate Ab)” value [8] of the same molecule?
Its value is 1 fold.

B2: QJ001-45 (antibody, human IgG1, lambda, V domains shown)
VH: B1 VH with I100F
VL: B1 VL with T23F, Q91G
notes: also called P02897
With B2 as the molecule, how does the Kd [4] read?
Its Kd is 0.0338 nM.

And the koff [4]?
Its koff is 0.000145 s⁻¹.

And the kon [4]?
The kon was 4.29e+06 M⁻¹ s⁻¹.

And the “EC50 (assay not named; EC50 is defined in paragraph 62 as the concentration of antibody required to block binding of PD-1/PD-L1 by 50%)” value [6]?
Its value is 0.0966 µg/mL.

And the “KD (Parental Ab)/KD (Candidate Ab)” value [8]?
The value was 10.4 fold.
